Assay results reported in publication PMC12416549 (2024).

T1: TNFR1 (Homo sapiens, UniProt P19438)
T1 chain: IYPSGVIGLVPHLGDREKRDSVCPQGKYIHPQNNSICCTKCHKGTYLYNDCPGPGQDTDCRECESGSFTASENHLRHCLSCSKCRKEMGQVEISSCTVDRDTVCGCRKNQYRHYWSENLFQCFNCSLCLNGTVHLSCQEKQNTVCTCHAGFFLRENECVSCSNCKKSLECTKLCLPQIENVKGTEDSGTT


Target: T1, TNFR1
Assay: yeast display SC50

Binder	apparent Kd (screen)
R66Q (designed binder) SMEEEVEKAAKEYEKKKKEAIEKHLEKLKAKDKEAAERFLKELEEAAKEYAKDEAKTMSEEEAKRQAKKYKEKVLLSELSEEEQKEIKEAEEKLVRTILKYVEEAAK	11.4 nM
S1G (designed binder) GMEEEVEKAAKEYEKKKKEAIEKHLEKLKAKDKEAAERFLKELEEAAKEYAKDEAKTMSEEEAKRRAKKYKEKVLLSELSEEEQKEIKEAEEKLVRTILKYVEEAAK	0.653 nM
A35N (designed binder) SMEEEVEKAAKEYEKKKKEAIEKHLEKLKAKDKENAERFLKELEEAAKEYAKDEAKTMSEEEAKRRAKKYKEKVLLSELSEEEQKEIKEAEEKLVRTILKYVEEAAK	1.69 nM
L43A (designed binder) SMEEEVEKAAKEYEKKKKEAIEKHLEKLKAKDKEAAERFLKEAEEAAKEYAKDEAKTMSEEEAKRRAKKYKEKVLLSELSEEEQKEIKEAEEKLVRTILKYVEEAAK	0.49 nM
A47N (designed binder) SMEEEVEKAAKEYEKKKKEAIEKHLEKLKAKDKEAAERFLKELEEANKEYAKDEAKTMSEEEAKRRAKKYKEKVLLSELSEEEQKEIKEAEEKLVRTILKYVEEAAK	1.4 nM
E12D (designed binder) SMEEEVEKAAKDYEKKKKEAIEKHLEKLKAKDKEAAERFLKELEEAAKEYAKDEAKTMSEEEAKRRAKKYKEKVLLSELSEEEQKEIKEAEEKLVRTILKYVEEAAK	1.05 nM
A51S (designed binder) SMEEEVEKAAKEYEKKKKEAIEKHLEKLKAKDKEAAERFLKELEEAAKEYSKDEAKTMSEEEAKRRAKKYKEKVLLSELSEEEQKEIKEAEEKLVRTILKYVEEAAK	1.86 nM
Y50C (designed binder) SMEEEVEKAAKEYEKKKKEAIEKHLEKLKAKDKEAAERFLKELEEAAKECAKDEAKTMSEEEAKRRAKKYKEKVLLSELSEEEQKEIKEAEEKLVRTILKYVEEAAK	0.956 nM
M58G (designed binder) SMEEEVEKAAKEYEKKKKEAIEKHLEKLKAKDKEAAERFLKELEEAAKEYAKDEAKTGSEEEAKRRAKKYKEKVLLSELSEEEQKEIKEAEEKLVRTILKYVEEAAK	22.2 nM
E22C (designed binder) SMEEEVEKAAKEYEKKKKEAICKHLEKLKAKDKEAAERFLKELEEAAKEYAKDEAKTMSEEEAKRRAKKYKEKVLLSELSEEEQKEIKEAEEKLVRTILKYVEEAAK	1.05 nM
M58P (designed binder) SMEEEVEKAAKEYEKKKKEAIEKHLEKLKAKDKEAAERFLKELEEAAKEYAKDEAKTPSEEEAKRRAKKYKEKVLLSELSEEEQKEIKEAEEKLVRTILKYVEEAAK	0.653 nM
E44P (designed binder) SMEEEVEKAAKEYEKKKKEAIEKHLEKLKAKDKEAAERFLKELPEAAKEYAKDEAKTMSEEEAKRRAKKYKEKVLLSELSEEEQKEIKEAEEKLVRTILKYVEEAAK	6.43 nM
K27W (designed binder) SMEEEVEKAAKEYEKKKKEAIEKHLEWLKAKDKEAAERFLKELEEAAKEYAKDEAKTMSEEEAKRRAKKYKEKVLLSELSEEEQKEIKEAEEKLVRTILKYVEEAAK	1.16 nM
K52A (designed binder) SMEEEVEKAAKEYEKKKKEAIEKHLEKLKAKDKEAAERFLKELEEAAKEYAADEAKTMSEEEAKRRAKKYKEKVLLSELSEEEQKEIKEAEEKLVRTILKYVEEAAK	0.49 nM
K41G (designed binder) SMEEEVEKAAKEYEKKKKEAIEKHLEKLKAKDKEAAERFLGELEEAAKEYAKDEAKTMSEEEAKRRAKKYKEKVLLSELSEEEQKEIKEAEEKLVRTILKYVEEAAK	0.869 nM
T57N (designed binder) SMEEEVEKAAKEYEKKKKEAIEKHLEKLKAKDKEAAERFLKELEEAAKEYAKDEAKNMSEEEAKRRAKKYKEKVLLSELSEEEQKEIKEAEEKLVRTILKYVEEAAK	2.05 nM
K68S (designed binder) SMEEEVEKAAKEYEKKKKEAIEKHLEKLKAKDKEAAERFLKELEEAAKEYAKDEAKTMSEEEAKRRASKYKEKVLLSELSEEEQKEIKEAEEKLVRTILKYVEEAAK	0.718 nM

Other lines, results leading:

apparent Kd (screen)	Binder
3.99 nM	R96Y (designed binder) SMEEEVEKAAKEYEKKKKEAIEKHLEKLKAKDKEAAERFLKELEEAAKEYAKDEAKTMSEEEAKRRAKKYKEKVLLSELSEEEQKEIKEAEEKLVYTILKYVEEAAK
11.4 nM	E91Q (designed binder) SMEEEVEKAAKEYEKKKKEAIEKHLEKLKAKDKEAAERFLKELEEAAKEYAKDEAKTMSEEEAKRRAKKYKEKVLLSELSEEEQKEIKEAQEKLVRTILKYVEEAAK
1.54 nM	S80K (designed binder) SMEEEVEKAAKEYEKKKKEAIEKHLEKLKAKDKEAAERFLKELEEAAKEYAKDEAKTMSEEEAKRRAKKYKEKVLLSELKEEEQKEIKEAEEKLVRTILKYVEEAAK
5.84 nM	K73D (designed binder) SMEEEVEKAAKEYEKKKKEAIEKHLEKLKAKDKEAAERFLKELEEAAKEYAKDEAKTMSEEEAKRRAKKYKEDVLLSELSEEEQKEIKEAEEKLVRTILKYVEEAAK
15.2 nM	L99P (designed binder) SMEEEVEKAAKEYEKKKKEAIEKHLEKLKAKDKEAAERFLKELEEAAKEYAKDEAKTMSEEEAKRRAKKYKEKVLLSELSEEEQKEIKEAEEKLVRTIPKYVEEAAK
0.539 nM	K88F (designed binder) SMEEEVEKAAKEYEKKKKEAIEKHLEKLKAKDKEAAERFLKELEEAAKEYAKDEAKTMSEEEAKRRAKKYKEKVLLSELSEEEQKEIFEAEEKLVRTILKYVEEAAK
0.79 nM	K93A (designed binder) SMEEEVEKAAKEYEKKKKEAIEKHLEKLKAKDKEAAERFLKELEEAAKEYAKDEAKTMSEEEAKRRAKKYKEKVLLSELSEEEQKEIKEAEEALVRTILKYVEEAAK
2.25 nM	A106L (designed binder) SMEEEVEKAAKEYEKKKKEAIEKHLEKLKAKDKEAAERFLKELEEAAKEYAKDEAKTMSEEEAKRRAKKYKEKVLLSELSEEEQKEIKEAEEKLVRTILKYVEEALK
2.05 nM	L79F (designed binder) SMEEEVEKAAKEYEKKKKEAIEKHLEKLKAKDKEAAERFLKELEEAAKEYAKDEAKTMSEEEAKRRAKKYKEKVLLSEFSEEEQKEIKEAEEKLVRTILKYVEEAAK
1.54 nM	L76P (designed binder) SMEEEVEKAAKEYEKKKKEAIEKHLEKLKAKDKEAAERFLKELEEAAKEYAKDEAKTMSEEEAKRRAKKYKEKVLPSELSEEEQKEIKEAEEKLVRTILKYVEEAAK
1.16 nM	V95N (designed binder) SMEEEVEKAAKEYEKKKKEAIEKHLEKLKAKDKEAAERFLKELEEAAKEYAKDEAKTMSEEEAKRRAKKYKEKVLLSELSEEEQKEIKEAEEKLNRTILKYVEEAAK
0.956 nM	E89N (designed binder) SMEEEVEKAAKEYEKKKKEAIEKHLEKLKAKDKEAAERFLKELEEAAKEYAKDEAKTMSEEEAKRRAKKYKEKVLLSELSEEEQKEIKNAEEKLVRTILKYVEEAAK
16.7 nM	L94P (designed binder) SMEEEVEKAAKEYEKKKKEAIEKHLEKLKAKDKEAAERFLKELEEAAKEYAKDEAKTMSEEEAKRRAKKYKEKVLLSELSEEEQKEIKEAEEKPVRTILKYVEEAAK
4.39 nM	R96E (designed binder) SMEEEVEKAAKEYEKKKKEAIEKHLEKLKAKDKEAAERFLKELEEAAKEYAKDEAKTMSEEEAKRRAKKYKEKVLLSELSEEEQKEIKEAEEKLVETILKYVEEAAK
0.446 nM	V102G (designed binder) SMEEEVEKAAKEYEKKKKEAIEKHLEKLKAKDKEAAERFLKELEEAAKEYAKDEAKTMSEEEAKRRAKKYKEKVLLSELSEEEQKEIKEAEEKLVRTILKYGEEAAK
1.54 nM	K100E (designed binder) SMEEEVEKAAKEYEKKKKEAIEKHLEKLKAKDKEAAERFLKELEEAAKEYAKDEAKTMSEEEAKRRAKKYKEKVLLSELSEEEQKEIKEAEEKLVRTILEYVEEAAK
2.73 nM	S77V (designed binder) SMEEEVEKAAKEYEKKKKEAIEKHLEKLKAKDKEAAERFLKELEEAAKEYAKDEAKTMSEEEAKRRAKKYKEKVLLVELSEEEQKEIKEAEEKLVRTILKYVEEAAK
1.4 nM	A105C (designed binder) SMEEEVEKAAKEYEKKKKEAIEKHLEKLKAKDKEAAERFLKELEEAAKEYAKDEAKTMSEEEAKRRAKKYKEKVLLSELSEEEQKEIKEAEEKLVRTILKYVEECAK
